B1: 578min_max T84N (991) (antibody, V domains shown)
VH: EVQLVESGGGLVQPGGSLRLSCTASGFSLTDYYYMTWVRQAPGKGLEWVGFIDPDDDPYYATWAKGRFTISRDNSKNTVYLQMNSLRAEDTAVYYCAGGDHNSGWGLDIWGQGTLVTVSS
VL: EIVMTQSPSTLSASVGDRVIITCQASEIIHSWLAWYQQKPGKAPKLLIYLASTLASGVPSRFSGSGSGAEFTLTISSLQPDDFATYYCQNVYLASTNGANFGQGTKLTVLG
B2: 511max_min (905) (antibody, V domains shown)
VH: EVQLVESGGGLVQPGGSLRLSCAASGFSLNTYYMNWVRQAPGKGLEWVSIIAPDDTTYYASWAKSRFTISRDNSKNTLYLQMNSLRAEDTAVYYCAKSGDTTAWGADIWGQGTLVTVSS
VL: EIVMTQSPSTLSASVGDRVIITCQASQSINIWLSWYQQKPGKAPKLLIYRASTLASGVPSRFSGSGSGTEFTLTISSLQPDDFATYYCQANYAYSAGYGAAFGQGTKLTVLG
B3: 511min_max (904) (antibody, V domains shown)
VH: EVQLVESGGGLVQPGGSLRLSCTVSGFSLNTYYMNWVRQAPGKGLEWVGIIAPDDTTYYASWAKSRSTISRDTSKNTVYLQMNSLRAEDTAVYYCARSGDTTAWGADIWGQGTLVTVSS
VL: EIVMTQSPSTLSASVGDRVIITCQASQSINIWCSWYQQKPGKAPKLLIYRASTLASGVPSRFSGSGSGAEFTLTISSLQPDDFATYYCQANYAYSAGYGAAFGQGTKLTVLG

The assay has as its target T1, human VEGF165 (human, UniProt P15692).
T1 chain: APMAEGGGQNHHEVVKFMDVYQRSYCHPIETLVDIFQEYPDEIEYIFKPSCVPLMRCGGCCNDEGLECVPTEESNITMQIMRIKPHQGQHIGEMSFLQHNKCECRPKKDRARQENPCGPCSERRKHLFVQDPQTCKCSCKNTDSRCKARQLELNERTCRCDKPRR
Briefly: SPR, pH 5. (In general: Surface plasmon resonance follows binding to a sensor surface in real time, without labels.)
In turn, B1 yielded a dissociation constant Kd of 0.971 nM.

Molecule B2 gave a Kd of 1.48 nM.

B3 had an equilibrium dissociation constant (Kd) of 0.278 nM.

As a reminder, the Kd is the free concentration of one partner at which half of the binding sites on the other are occupied at equilibrium, for simple one-to-one binding. A low value points to a tighter complex.

The values above are taken from US10590193 (dated 2020).
